From US20220144940A1 (VIELA BIO, published 2022)
Values joined by “and” are separate entries in the source; they are usually repeats but may differ in a detail not shown here. Identical values can stand only once.

Key:
[1] = biological target: T1, recombinant human ILT7 protein (human, UniProt P59901 24-446, limits assumed); experiment: SPR on ProteOn, purified IgG on rILT7
T1 construct: Soluble recombinant protein used in ProteOn and BIAcore SPR; also called rILT7; Soluble Recombinant Human ILT7

cynomolgus ILT7 [2] = biological target: T2, cynomolgus ILT7 (cynomolgus, UniProt P59901 24-499 (human entry)); experiment: FACS on CHO cells expressing recombinant cyno ILT7
T2 construct: also called cyno ILT7; cynomolgus monkey ILT7

human ILT7 [3] = biological target: T3, human ILT7 (human, UniProt P59901 24-499); experiment: FACS on CHO cells expressing recombinant human ILT7
T3 construct: whole, on cells; also called LIRA4; LILRA4

[4] = biological target: T4, HA-tagged human ILT7 on CT-550 cells (human, UniProt P59901 24-499); experiment: flow cytometry on CT-550 cells expressing human ILT7, anti-human IgG DyLight 649 detection; table 'Mean Ec50 (nM)', n = 2
T4 construct: whole, on cells; CT-550 cells: CT-125 cells (2B4 murine T-cell hybridoma with mouse FcεRIγ and NFAT-GFP reporter) transduced with HA-tagged human ILT7; also called human ILT7-expressing cells; not shown: HA tag
Description: (§1) Binding of anti-ILT7 variants and isotype controls on human and cynomolgus ILT7 was assessed by flow cytometry analysis using CT-550 and cynoILT7 CT-125 cells respectively. CT-125 cells were used as control. Cells were resuspended in Blocking Buffer (PBS supplemented with 10% FBS) at a concentration of 5 million cells per mL and transferred into a round-bottom 96-well plates (BD Falcon™ Clear Microtest Plate, BD Biosciences) at 100 μL per well. Anti-ILT7 variants and control antibodies were added onto the cells for 30 min at 4° C. on a plate shaker. Cells were washed three times with PBS and resuspended in Blocking Buffer (100 μL/well). Human IgG binding on cell surface was detected using a secondary anti-human IgG antibody conjugated to DyLight 649 (1 in 1000 dilution). Cells were incubated in the dark for 30 min at 4° C. on a plate shaker. Cells were washed three times with PBS and surface fluorescence was acquired using LSRII Flow Cytometry System and FACSDiva Software (both from BD Biosciences).
(§2) In order to determine the binding EC50 of ILT70019, ILT70028, ILT70052, ILT70076, ILT70080, ILT70083, ILT70089, ILT70100, ILT70137, ILT70142 and ILT70144 on cells expressing human ILT7, the candidates were screened for binding on CT-550 cells by flow cytometry. ILT70080 (EC₅₀=0.28 nM), ILT70083 (EC₅₀=0.37 nM), ILT70137 (EC₅₀=0.41 nM), ILT70144, ILT70142, ILT70052, and ILT70100 bound to human ILT7-expressing cells. […] The anti-ILT7 antibodies 7C7 (7C7 is described above in Example 1) and SBI33 (SBI33 refers to the anti-ILT7 antibody ILT7#33 provided in U.S. Published Application No. 2009/0280128) were used as positive controls.

cynomolgus ILT7 [5] = biological target: T2, cynomolgus ILT7; experiment: flow cytometry on CynoILT7 CT-125 cells expressing cynomolgus ILT7, anti-human IgG DyLight 649 detection; table 'Mean Ec50 (nM)', n = 2
Description: as §1
(§3) In order to determine the binding EC₅₀ of the variants on cells expressing cynomolgus ILT7, the antibodies were screened for binding on CynoILT7 CT-125 cells by flow cytometry. […] The graph in FIG. 3 represents the mean results from two independent experiments, and the table in FIG. 3 show the average EC₅₀.

[6] = biological target: T4, HA-tagged human ILT7 on CT-550 cells; experiment: cell-based or functional assay
cynomolgus ILT7 [7] = biological target: T2, cynomolgus ILT7; experiment: cell-based or functional assay
[8] = biological target: T4, HA-tagged human ILT7 on CT-550 cells; experiment: flow cytometry on CT-550 cells
Description: as §1, §2

cynomolgus ILT7 [9] = biological target: T2, cynomolgus ILT7; experiment: flow cytometry on CynoILT7 CT-125 cells
Description: as §1, §3

cynomolgus ILT7 [10] = biological target: T2, cynomolgus ILT7; experiment: flow cytometry on cells expressing cynomolgus ILT7 (CT-125 cells)
Description: as §1
The resultant IgG1s were tested to confirm that the sequence changes incorporated into ILT70080 and ILT70083 and had not adversely impacted the binding of the parent antibody to cells expressing human ILT7 (CT-550 cells) or cynomolgus ILT7 (CT-125 cells). The variants were screened for binding by flow cytometry. […]

[11] = biological target: T4, HA-tagged human ILT7 on CT-550 cells; experiment: flow cytometry on human ILT7-expressing cells, left panel 'Human ILT7', table 'Ec50 (nM)'
Description: as §1

cynomolgus ILT7 [12] = biological target: T2, cynomolgus ILT7; experiment: flow cytometry on cynomolgus ILT7-expressing cells, right panel 'Cyno ILT7', table 'Ec50 (nM)'
Description: as §1

human ILT7 [13] = biological target: T3, human ILT7; experiment: FMAT cell binding assay, CHO-K1 cells expressing human ILT7, IgG
Source text: (§4) This homogeneous assay assessed the binding of crude scFv supernatant samples or purified IgG to Chinese Hamster Ovary (CHO) cells expressing either human or cynomolgus ILT7 in a 384-well (Costar 3655) format. ScFv or Ab binding to cells was detected using a mouse anti-His/goat anti-mouse Alexafluor®-647 labelled antibody (Molecular Probes A21236) mix, or goat anti-human Alexafluor®-647 labelled antibody (Molecular Probes A21445) respectively. Plates were read on the Applied Biosystems Cellular Detection system 8200 reader. The Helium neon excitation laser was focused within 100 μm depth of the bottom of the well, scanning an area 1 mm². The cells settled at the bottom of the well, and upon laser excitation at 633 nm, those beads with fluorophore bound (where the local concentration of fluorophore is relatively high compared to unbound fluorophore) emitted a signal at 650-685 nm that was measured using photomultiplier tube-1 (PMT1). […] The presence of scFv or IgG samples binding to the cells at the bottom of the well caused an increase in Alexafluor-labeled detection antibody within the excitation depth. This was measured as an increase in fluorescence.
(§5) The cells used were CHO-Kl cells expressing either human or cynomolgus ILT7 that were cultured using standard tissue culture techniques. […]
(§6) Species cross-reactivity of anti-ILT7 antibodies was determined using FMAT binding assay. […]

cynomolgus ILT7 [14] = biological target: T2, cynomolgus ILT7; experiment: FMAT cell binding assay, CHO-K1 cells expressing cynomolgus ILT7, IgG
Source text: as §4, §5, §6

[15] = biological target: T4, HA-tagged human ILT7 on CT-550 cells; experiment: flow cytometry on CT-550 cells expressing human ILT7, anti-human IgG DyLight 649 detection; mean of two experiments
Description: as §1
In order to determine the binding EC50 of ILT70019, ILT70028, ILT70052, ILT70076, ILT70080, ILT70083, ILT70089, ILT70100, ILT70137, ILT70142 and ILT70144 on cells expressing human ILT7, the candidates were screened for binding on CT-550 cells by flow cytometry. […]

cynomolgus ILT7 [16] = biological target: T2, cynomolgus ILT7; experiment: FACS on CHO cells expressing recombinant cyno ILT7; reference antibody of the comparison
human ILT7 [17] = biological target: T3, human ILT7; experiment: FACS on CHO cells expressing recombinant human ILT7; reference antibody of the comparison

T4 sequence (P59901 24-499): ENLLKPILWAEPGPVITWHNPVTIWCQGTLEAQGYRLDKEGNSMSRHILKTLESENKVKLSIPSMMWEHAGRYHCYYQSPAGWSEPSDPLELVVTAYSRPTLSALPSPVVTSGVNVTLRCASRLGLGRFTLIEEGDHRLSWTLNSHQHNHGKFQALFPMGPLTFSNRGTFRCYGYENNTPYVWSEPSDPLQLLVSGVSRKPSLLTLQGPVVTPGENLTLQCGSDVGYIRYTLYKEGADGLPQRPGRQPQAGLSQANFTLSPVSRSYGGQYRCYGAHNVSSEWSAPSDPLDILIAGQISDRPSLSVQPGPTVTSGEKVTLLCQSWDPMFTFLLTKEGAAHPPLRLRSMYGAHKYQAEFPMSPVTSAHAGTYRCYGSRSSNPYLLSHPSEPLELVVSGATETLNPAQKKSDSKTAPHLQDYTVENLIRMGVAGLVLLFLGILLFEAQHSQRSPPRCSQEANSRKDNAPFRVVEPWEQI
T3 sequence (P59901 24-499): as above
T2 sequence (P59901 other isoform, or with tags, fused parts or gaps limits assumed): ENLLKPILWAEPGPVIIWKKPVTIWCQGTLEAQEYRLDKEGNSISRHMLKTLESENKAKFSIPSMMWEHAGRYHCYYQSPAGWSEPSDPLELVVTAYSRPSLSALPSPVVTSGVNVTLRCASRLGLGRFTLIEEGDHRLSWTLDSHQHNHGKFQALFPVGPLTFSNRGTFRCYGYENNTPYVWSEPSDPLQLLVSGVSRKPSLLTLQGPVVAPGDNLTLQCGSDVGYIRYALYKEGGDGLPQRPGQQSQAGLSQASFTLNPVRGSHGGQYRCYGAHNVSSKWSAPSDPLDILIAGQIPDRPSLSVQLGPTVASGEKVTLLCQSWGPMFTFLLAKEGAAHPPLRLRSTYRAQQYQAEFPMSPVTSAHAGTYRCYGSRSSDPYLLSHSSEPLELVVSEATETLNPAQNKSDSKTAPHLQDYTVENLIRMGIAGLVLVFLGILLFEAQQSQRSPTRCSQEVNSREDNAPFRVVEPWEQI
T1 sequence (P59901 24-446 limits assumed): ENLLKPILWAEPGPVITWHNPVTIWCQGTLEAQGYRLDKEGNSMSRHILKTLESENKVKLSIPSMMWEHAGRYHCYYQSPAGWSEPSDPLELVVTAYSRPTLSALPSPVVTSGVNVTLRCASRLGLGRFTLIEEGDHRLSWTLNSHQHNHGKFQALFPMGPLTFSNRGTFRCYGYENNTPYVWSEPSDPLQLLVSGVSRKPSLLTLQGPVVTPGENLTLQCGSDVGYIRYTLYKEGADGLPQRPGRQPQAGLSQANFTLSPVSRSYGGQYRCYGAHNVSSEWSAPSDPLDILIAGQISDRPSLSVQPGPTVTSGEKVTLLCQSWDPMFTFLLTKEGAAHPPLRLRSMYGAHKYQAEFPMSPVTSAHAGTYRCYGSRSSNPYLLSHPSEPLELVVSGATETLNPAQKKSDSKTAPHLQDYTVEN

B1: 7C7 (antibody, V domains shown)
VH: EVQLVESGGGVVQPGRSLRLSCAASGFTFSIYPIEWVRQAPGQGLEWIGNFHPYNDDTKYNEKFKGRVTMTTDTSTSTVYMELSSLRSEDTAVYYCTRGDDYGLDYWGQGTLVTVSS
VL: NIQMTQSPSSLSASVGDRVTITCDASQNVRTAVAWYQQKPGKAPKRLIYLASNRHTGVPSRFSGSGSGTDFTLTISSLQSEDFATYYCLQHWNYPFTFGPGTKLEIK
notes: also called anti-ILT7 clone 7C7
In the case of B1, the “fold KD improvement over SBI28ch” value [1] is reported as about 60 fold, the “fold better EC50 than SBI28ch” value (cynomolgus ILT7 [2]) is reported as 14 fold and the “fold better EC50 than SBI28ch” value (human ILT7 [3]) is reported as 2.2 fold. The EC50 [4] was 1.3 nM and the EC50 (cynomolgus ILT7 [5]) was 8.34 nM.

B2: ILT70080 (antibody, V domains shown)
VH: QVQLVQSGAEVKAPGTSVKVSCKASGDSFRNYAVSWVRQAPGQGLEWMGAMMPSFGTREHSQQFNGRVTLSADESTSTAYLELSSLRYDDTAVYYCAGSRDYNAYHFWTGPPDFWGRGTLVTVSS
VL: SYELTQPPSVSVAPGKTAKISCGGDSVGSTSVHWYQQKPGQAPVMVMFYNSDRPSGIPERFSGSISGNTATLTISRVEAGDEADYYCQVWDTSSDHPEFGGGTKLTVL
notes: also called ITL70080
For B2, the “ADCC EC50” value [6] was 0.022 nM and 0.013 nM, the “ADCC EC50” value (cynomolgus ILT7 [7]) was 0.008 nM and 0.006 nM and the EC50 [8] was 0.28 nM and 0.213 nM. For the same binder, the EC50 (cynomolgus ILT7 [9]) was 0.44 nM, the EC50 (cynomolgus ILT7 [10]) was 0.547 nM and the EC50 [11] was 0.3 nM. It also gave an EC50 (cynomolgus ILT7 [12]) of 0.41 nM.

B3: ILT70089 (antibody, V domains shown)
VH: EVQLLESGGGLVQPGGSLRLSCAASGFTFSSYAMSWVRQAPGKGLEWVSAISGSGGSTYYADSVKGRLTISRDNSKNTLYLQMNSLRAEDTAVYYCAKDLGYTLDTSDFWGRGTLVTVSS
VL: SYVLTQPPSASGSPGQGVTISCSGSSSNIGTNTVNWYLHVPGTAPKLLTYTNNQRPSGVQDRFSGSKSDTSASLAISGLQAEDEGDYYCATWDDSLNGLAFGGGTKLTVL
B3: binds (human ILT7 [13]); binds (cynomolgus ILT7 [14]); binds [15].

B4: SBI28ch (antibody, V domains shown)
VH: QVQLQQSGAELVKPGASVKMSCKAFGYTFTTYPIEWMKQNHGKSLEWIGNFHPYNDDTKYNEKFKGKAKLTVEKSSSTVYLELSRLTSDDSAVYYCARGDDYGMDYWGQGTSVTVSS
VL: DIVMTQSQKFMSTSVGDRVSITCKASQNVRTAVAWYQQKPGQSPKALIYLASNRHTGVPDRFTGSGSGTDFTLTISNVQSEDLADYFCLQHWNYPFTFGSGTKLEIK
notes: also called chimeric SBI28; ILT7#28
B4: binds (cynomolgus ILT7 [16]); binds (human ILT7 [17]).
